Test results from publication PMC5658516.

target: OTULIN-diUb adduct (endogenous OTULIN coupled to bio-Ub_(G76Dha)-Ub) (human (endogenous in HEK293 and Jurkat T cells) | not stated) (UniProt Q96BN8); test: pull-down; biotin-PD of the OTULIN-diUb adduct formed in extracts of transfected HEK293 cells or of Jurkat T cells (with or without TNF-α, 20 ng/mL) on streptavidin agarose, three washes with co-IP buffer; western blot of eluate, input and supernatant

Percent of the protein removed from the extract by the biotin-PD, 25%:
endogenous HOIP (from UniProt Q96EP0 1-1072) (natural protein)
endogenous SHARPIN (from UniProt Q9H0F6 1-387) (natural protein)
endogenous HOIL-1 (from UniProt Q9BYM8 1-510) (natural protein)
